Source: patent US20250170255A1 (Daiichi Sankyo, published 2025)

Experiments:
[1] = molecular target: T1, biotinylated human TROP2 antigen (human, UniProt P09758 27-274, C-terminal Avi tag sequence biotinylated); experiment: ELISA, immobilised biotinylated human TROP2 antigen, chemiluminescence; after uPA pre-treatment (mask linker cleaved)
T1 construct: extracellular domain
T1 sequence (looked up): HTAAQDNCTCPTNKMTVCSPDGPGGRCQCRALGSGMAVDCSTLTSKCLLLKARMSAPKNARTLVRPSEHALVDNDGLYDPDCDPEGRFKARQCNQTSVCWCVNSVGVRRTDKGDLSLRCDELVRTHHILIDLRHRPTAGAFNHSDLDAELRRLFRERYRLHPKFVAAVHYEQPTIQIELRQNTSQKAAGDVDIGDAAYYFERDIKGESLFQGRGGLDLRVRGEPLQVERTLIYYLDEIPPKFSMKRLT
Description: (§1) NeutrAvidin (Thermo Fisher Scientific) diluted to 1 μg/ml with PBS was added at 50 μl/well to a 96-well Maxi-sorp plate (Black, Nunc) and immobilized at 4° C. overnight. The plate was washed with PBS containing 0.05% (w/v) Tween-20 (BioRad) (ELISA buffer) and then blocked with Blocker Casein (Thermo Fisher Scientific). The plate was washed with ELISA buffer, the biotinylated human TROP2 antigen (Accession Number: P09758; the extracellular domain was purified by the method known to a person skilled in the art and the C-terminal Avi tag sequence was then biotinylated) diluted to 1 μg/ml with PBS was added at 50 μl/well, and the resultant was then agitated for 30 minutes at room temperature. […] The plate was washed with ELISA buffer, 50 μl of the horseradish peroxidase (HRP)-labeled anti-human IgG antibody (Jackson Immuno Research Laboratories) diluted to 2,500-fold with ELISA buffer was added, and the resultant was then agitated for 30 minutes at room temperature. The plate was washed with ELISA buffer, the SuperSignal Pico ELISA chemiluminescent substrate (Thermo Fisher Scientific) was added, and chemiluminescence 10 minutes thereafter was then assayed using a plate reader.

[2] = molecular target: T1, biotinylated human TROP2 antigen; experiment: ELISA with and without uPA
[3] = molecular target: T1, biotinylated human TROP2 antigen; experiment: ELISA, immobilised biotinylated human TROP2 antigen, chemiluminescence; without uPA
Description: as §1

EC50 (read off the curve) [1]: ~1 nM | EC50 ratio of binding intensity (without uPA / with uPA) [2]: 83 | EC50 (read off the curve) [3]: ~90 nM
B1: anti-TROP2 masked antibody MHT1009 (antibody)
heavy: not shown
light: DIQMTQSPSSLSASVGDRVTITCKASQDVSTAVAWYQQKPGKAPKLLIYSASYRYTGVPSRFSGSGSGTDFTLTISSLQPEDFAVYYCQQHYITPLTFGQGTKLEIKRTVAAPSVFIFPPSDEQLKSGTASVVCLLNNFYPREAKVQWKVDNALQSGNSQESVTEQDSKDSTYSLSSTLTLSKADYEKHKVYACEVTHQGLSSPVTKSFNRGEC
notes: Full-length entries
